Data published in the supplement of paper PMC10567573.

B1: HESX1 (parent)
chain: ENKPSTCSFSIERILGLDQKKDCV

Variants of: B1
Assay: protein stability index of a GFP-peptide fusion (GPS, HEK-293T) (PSI 1-6); higher = more stable
Details: c terminus: a fixed tail appended
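Also: lentivirally expressed fusions sorted by FACS into six bins by GFP to DsRed ratio, PSI derived from sequencing read proportions per bin multiplied by bin number.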

Variant | protein stability index
ENKPSTCSFSIEEILGLDQKKDCV | 3.46
ENKPSTCSFSIEGILGLDQKKDCV | 3.78
ENKPSTCSFSIEDILGLDQKKDCV | 3.9
ENKPSTCSFSIEAILGLDQKKDCV | 3.18
ENKPSTCSFSIECILGLDQKKDCV | 2.6
ENKPSTCSFSIEFILGLDQKKDCV | 1.48
ENKPSTCSFSIEHILGLDQKKDCV | 3.31
ENKPSTCSFSIMRILGLDQKKDCV | 1.86
ENKPSTCSFSIPRILGLDQKKDCV | 2.94
ENKPSTCSFSIGRILGLDQKKDCV | 3.65
ENKPSTCSFSIDRILGLDQKKDCV | 3.8
ENKPSTCSFSIWRILGLDQKKDCV | 1.48
ENKPSTCSFSIFRILGLDQKKDCV | 1.63
ENKPSTCSFSIKRILGLDQKKDCV | 2.86
ENKPSTCSFSIVRILGLDQKKDCV | 1.64
ENKPSTCSFSIYRILGLDQKKDCV | 1.9
ENKPSTCSFSIQRILGLDQKKDCV | 2.57
ENKPSTCSFSISRILGLDQKKDCV | 2.84
ENKPSTCSFSILRILGLDQKKDCV | 1.86
ENKPSTCSFSIRRILGLDQKKDCV | 2.46
ENKPSTCSFSIIRILGLDQKKDCV | 1.61
ENKPSTCSFSITRILGLDQKKDCV | 2.94
ENKPSTCSFSINRILGLDQKKDCV | 3.44
ENKPSTCSFSICRILGLDQKKDCV | 2.45

Variant | protein stability index
ENKPSTCSFSIHRILGLDQKKDCV | 2.47
ENKPSTCSQSIERILGLDQKKDCV | 4.3
ENKPSTCSLSIERILGLDQKKDCV | 4.07
ENKPSTCSESIERILGLDQKKDCV | 4.41
ENKPSTCSWSIERILGLDQKKDCV | 2.42
ENKPSTCSDSIERILGLDQKKDCV | 4.24
ENKPSTCSSSIERILGLDQKKDCV | 3.97
ENKPSTCSGSIERILGLDQKKDCV | 4.43
ENKPSTCSTSIERILGLDQKKDCV | 4.45
ENKPSTCSMSIERILGLDQKKDCV | 2.79
ENKPSTCSRSIERILGLDQKKDCV | 3.88
ENKPSTCSKSIERILGLDQKKDCV | 4.3
ENKPSTCSNSIERILGLDQKKDCV | 4.2
ENKPSTCSPSIERILGLDQKKDCV | 5.09
ENKPSTCSYSIERILGLDQKKDCV | 3.52
ENKPSTCSHSIERILGLDQKKDCV | 4.15
ENKPSTCSCSIERILGLDQKKDCV | 3.43
ENKPSTCSVSIERILGLDQKKDCV | 4.09
ENKPSTCSASIERILGLDQKKDCV | 3.86
ENKPSTCSISIERILGLDQKKDCV | 3.43
ENKPSTCSFPIERILGLDQKKDCV | 4.28
ENKPSTCSFFIERILGLDQKKDCV | 2.84
ENKPSTCSFHIERILGLDQKKDCV | 3.5
ENKPSTCSFAIERILGLDQKKDCV | 2.86

Variant | protein stability index
ENKPSTCSFTIERILGLDQKKDCV | 4.07
ENKPSTCSFKIERILGLDQKKDCV | 3.77
ENKPSTCSFMIERILGLDQKKDCV | 2.48
ENKPSTCSFVIERILGLDQKKDCV | 2.29
ENKPSTCSFRIERILGLDQKKDCV | 2.71
ENKPSTCSFGIERILGLDQKKDCV | 3.27
ENKPSTCSFNIERILGLDQKKDCV | 3.27
ENKPSTCSFEIERILGLDQKKDCV | 3.01
ENKPSTCSFYIERILGLDQKKDCV | 2.8
ENKPSTCSFCIERILGLDQKKDCV | 2.38
ENKPSTCSFWIERILGLDQKKDCV | 2.76
ENKPSTCSFIIERILGLDQKKDCV | 2.62
ENKPSTCSFDIERILGLDQKKDCV | 4
ENKPSTCSFQIERILGLDQKKDCV | 3.26
ENKPSTCSFLIERILGLDQKKDCV | 3.05
ENKPSTCSFSLERILGLDQKKDCV | 3.58
ENKPSTCSFSEERILGLDQKKDCV | 5.05
ENKPSTCSFSNERILGLDQKKDCV | 4.63
ENKPSTCSFSRERILGLDQKKDCV | 4.73
ENKPSTCSFSQERILGLDQKKDCV | 3.97
ENKPSTCSFSVERILGLDQKKDCV | 2.91
ENKPSTCSFSCERILGLDQKKDCV | 3.27
ENKPSTCSFSFERILGLDQKKDCV | 3.06
ENKPSTCSFSMERILGLDQKKDCV | 3.42

Variant | protein stability index
ENKPSTCSFSHERILGLDQKKDCV | 3.7
ENKPSTCSFSPERILGLDQKKDCV | 5.12
ENKPSTCSFSWERILGLDQKKDCV | 2.77
ENKPSTCSFSGERILGLDQKKDCV | 3.13
ENKPSTCSFSYERILGLDQKKDCV | 3.13
ENKPSTCSFSDERILGLDQKKDCV | 4.04
ENKPSTCSFSKERILGLDQKKDCV | 4
ENKPSTCSFSTERILGLDQKKDCV | 3.52
ENKPSTCSFSAERILGLDQKKDCV | 3.27
ENKPSTCSFSSERILGLDQKKDCV | 4.21
ENKPSTCIFSIERILGLDQKKDCV | 2.83
ENKPSTCRFSIERILGLDQKKDCV | 2.79
ENKPSTCYFSIERILGLDQKKDCV | 2.66
ENKPSTCVFSIERILGLDQKKDCV | 3.1
ENKPSTCPFSIERILGLDQKKDCV | 4.2
ENKPSTCWFSIERILGLDQKKDCV | 2.14
ENKPSTCTFSIERILGLDQKKDCV | 3.52
ENKPSTCNFSIERILGLDQKKDCV | 3.07
ENKPSTCQFSIERILGLDQKKDCV | 3.23
ENKPSTCMFSIERILGLDQKKDCV | 3.73
ENKPSTCLFSIERILGLDQKKDCV | 3.07
ENKPSTCKFSIERILGLDQKKDCV | 2.94
